Target: T1, EpCAM (endogenous on HuCCT1 cells) (UniProt P16422)
T1 sequence: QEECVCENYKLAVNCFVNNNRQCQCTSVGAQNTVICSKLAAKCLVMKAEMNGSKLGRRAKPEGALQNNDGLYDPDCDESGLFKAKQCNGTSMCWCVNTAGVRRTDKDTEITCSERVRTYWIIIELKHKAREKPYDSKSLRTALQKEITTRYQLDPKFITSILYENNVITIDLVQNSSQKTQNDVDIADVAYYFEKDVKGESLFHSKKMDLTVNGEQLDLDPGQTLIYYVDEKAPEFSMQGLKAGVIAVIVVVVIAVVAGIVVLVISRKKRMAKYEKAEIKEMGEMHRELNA
Assay: flow cytometry on HuCCT1 cells
Settings: Whole cells, 30 min on ice, HuCCT1 biotin block in PBS + 0.2% NaN3, 2.5 mM MgCl2, 0.1 mg/mL yeast total RNA (aptamer binding buffer not separately stated) …

Row | Sequence | Kd (phosphorothioate (marked * in Table 2): C*A*C*ACTTCTAAGAGGG*AACAGACGTCGATCTTTGCGGAACT*CCTG*C*G) | Kd (phosphorothioate (marked * in Table 2): G*A*C*CCACGGAGGTTG*CGTCCGTG*GGGG*A*C)
1 | CACACTTCTAAGAGGGAACAGACGTCGATCTTTGCGGAACTCCTGCG [PLD01 (B-aptamer)] | 177 nM | –
2 | GACCCACGGAGGTTGCGTCCGTGGGGGAC [PLD02 (B-aptamer)] | – | 236 nM

Source: article PMC11548041
